Columns and labels:
[1] = target: recombinant human CD40L (BioLegend Cat. #591706) (human) (UniProt P29965); test: ELISA on coated rhCD40L; lower limit of IC50
[2] = target: recombinant human FcγRI (human) (UniProt P12314); test: ELISA: test protein coated, recombinant human FcγRI titrated, anti-CD64 detection, A450
Chain of recombinant human FcγRI (human) (P12314 16-288 limits assumed): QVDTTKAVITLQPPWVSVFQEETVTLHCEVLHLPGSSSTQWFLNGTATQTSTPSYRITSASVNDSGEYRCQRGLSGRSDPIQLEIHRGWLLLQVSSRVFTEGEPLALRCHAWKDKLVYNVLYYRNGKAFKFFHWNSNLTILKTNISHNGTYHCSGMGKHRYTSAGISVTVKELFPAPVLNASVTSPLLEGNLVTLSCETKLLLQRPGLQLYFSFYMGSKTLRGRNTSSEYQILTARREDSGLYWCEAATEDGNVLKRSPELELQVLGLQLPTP

Chain of recombinant human CD40L (BioLegend Cat. #591706) (human) (P29965 113-261 limits assumed, form in doubt): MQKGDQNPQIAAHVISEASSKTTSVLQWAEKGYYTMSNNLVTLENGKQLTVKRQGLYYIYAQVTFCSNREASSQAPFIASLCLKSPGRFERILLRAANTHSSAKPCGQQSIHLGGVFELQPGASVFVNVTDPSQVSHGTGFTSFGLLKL

With “anti-CD40L antibody 5c8 (reference antibody)” the LCL [1] was 0.04 and the EC50 (read off the curve) [2] was 0.2 µg/mL.
